# Reference: PMC7040017
# Target: 11-A-12 recombinant fibronectin fragment, containing the EDA domain
substance,measurement,value
F8 single-chain variable Fragment (scFv) linked to a single unit of murine GITRL (from UniProt Q7TS55 46-170),fold reduction of the EC50 of NF-κB reporter activity of the CTLL-2 reporter cell line in the presence of EDA (coated 11-A-12 fibronectin) against no EDA,5 fold
